Measured values reported in publication PMC8943916.

Biological target: TIM (the TIM-EGFP-LacI bait of the FRAP experiment, not named)
Assay: FRAP

- FRAP half-life: 14.9 s
B1: TagRFP-PPP1R10-TND (domain or fragment)
chain: KLLNNWLTYSKTTNNIPLLQQILLTLQHLPLTVDHLKQNNTAKLVKQLSKSSEDEELRKLASVLVSDWMAVIRSQ
